Reference: article PMC3454426

Tests used:
[1] = biological target: Moniliophthora perniciosa necrosis- and ethylene-inducing protein 2 (MpNep2) (Moniliophthora perniciosa); assay: dynamic light scattering; monomer 120 uM and dimer 45 uM in 20 mM phosphate, 80 mM NaCl, pH 7.4, 25°C
[2] = biological target: Moniliophthora perniciosa necrosis- and ethylene-inducing protein 2 (MpNep2) (Moniliophthora perniciosa); assay: SEC; preparative Sephacryl S100 16/60 and analytical UFLC on Superdex 200 or 75, 0.7 mL/min; 20 mM phosphate pH 7.4, 80 mM NaCl; also at different ionic strengths and after 1 mM 2-mercaptoethanol

“Moniliophthora perniciosa necrosis- and ethylene-inducing protein 2 (MpNep2) (natural protein)” gave a stoichiometry N [1] of 2 and a stoichiometry N [2] of 2.
